Values quoted from earlier work, collected in paper PMC7930624.
Several values for one entry are separate records, joined by “and”; a condition that tells them apart may be missing. Equal values may be shown once.

Target: ACE2 (Homo sapiens) (UniProt Q9BYF1)
Sequence (Q9BYF1 18-740): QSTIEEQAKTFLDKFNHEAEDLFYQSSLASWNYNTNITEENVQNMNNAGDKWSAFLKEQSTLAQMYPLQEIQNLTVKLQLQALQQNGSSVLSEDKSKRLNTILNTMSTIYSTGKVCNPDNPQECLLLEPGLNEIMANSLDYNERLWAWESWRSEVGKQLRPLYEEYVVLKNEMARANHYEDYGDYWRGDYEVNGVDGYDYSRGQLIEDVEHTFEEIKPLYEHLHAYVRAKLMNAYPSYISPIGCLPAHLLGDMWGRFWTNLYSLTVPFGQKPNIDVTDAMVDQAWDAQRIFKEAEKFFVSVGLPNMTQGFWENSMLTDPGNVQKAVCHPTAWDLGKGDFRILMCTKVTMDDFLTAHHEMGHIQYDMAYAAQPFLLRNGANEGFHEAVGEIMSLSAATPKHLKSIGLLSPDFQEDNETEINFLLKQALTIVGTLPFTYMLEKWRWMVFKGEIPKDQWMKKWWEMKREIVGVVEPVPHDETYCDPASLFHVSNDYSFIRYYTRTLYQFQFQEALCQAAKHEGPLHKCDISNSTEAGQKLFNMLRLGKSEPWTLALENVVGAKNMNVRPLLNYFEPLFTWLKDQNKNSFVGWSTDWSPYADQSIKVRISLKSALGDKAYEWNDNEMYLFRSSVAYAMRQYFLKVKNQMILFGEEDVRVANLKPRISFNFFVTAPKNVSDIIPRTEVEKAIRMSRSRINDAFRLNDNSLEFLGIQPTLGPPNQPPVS

Sequence of Human defensin-5 (Q01523 63-94): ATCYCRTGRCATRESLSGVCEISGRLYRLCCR

Kd: 39.3 nM and 76.2 nM
Substance: Human defensin-5 (from UniProt Q01523)
